Source: patent EP4810611A2

B1: anti-TRBV9-1 monoclonal antibody (antibody, human IgG1, kappa, V domains shown)
VH: QIQLVQSGPELREPGESVKLSCKASGYTFTDYLVHWVKQAPGKGLKWMGWINTYTGTPTYADDFEGRFVFSLEASASTANLQISNLKNEDTATYFCARSWRRGLRGLGFDYWGQGVFVTVSS
VL: DVQMTQSPYNLAASPGESVSINCKASKSINKYLAWYQQKPGKPNKLLIYDGSTLQSGIPSRFSGSGSGTDFTLTIRGLEPEDFGLYYCQQHNEYPPTFGAGTKLELKR
B2: anti-TRBV9-4 monoclonal antibody (antibody, human IgG1, kappa, V domains shown)
VH: QIQLVQSGPELREPGESVKLSCKASGYTFTDYLVHWVKQAPGKGLKWMGWINTYTGTPTYADDFEGRFVFSLEASASTANLQISNLKNEDTATYFCARSWRRGIRGIGFDYWGQGVFVTVSS
VL: DVQMTQSPYNLAASPGESVSINCKASKSINKYLAWYQQKPGKPNKLLIYDGSTLQSGIPSRFSGSGSGTDFTLTIRGLEPEDFGLYYCQQHNEYPPTFGAGTKLELKR
B3: anti-TRBV9-3 monoclonal antibody (antibody, human IgG1, kappa, V domains shown)
VH: QIQLVQSGPELREPGESVKLSCKASGYTFTDYLVHWVKQAPGKGLKWMGWINTYTGTPTYADDFEGRFVFSLEASASTANLQISNLKNEDTATYFCARSWRRGIRGLGFDYWGQGVFVTVSS
VL: DVQMTQSPYNLAASPGESVSINCKASKSINKYLAWYQQKPGKPNKLLIYDGSTLQSGIPSRFSGSGSGTDFTLTIRGLEPEDFGLYYCQQHNEYPPTFGAGTKLELKR
B4: anti-TRBV9-2 monoclonal antibody (antibody, human IgG1, kappa, V domains shown)
VH: QIQLVQSGPELREPGESVKLSCKASGYTFTDYLVHWVKQAPGKGLKWMGWINTYTGTPTYADDFEGRFVFSLEASASTANLQISNLKNEDTATYFCARSWRRGLRGIGFDYWGQGVFVTVSS
VL: DVQMTQSPYNLAASPGESVSINCKASKSINKYLAWYQQKPGKPNKLLIYDGSTLQSGIPSRFSGSGSGTDFTLTIRGLEPEDFGLYYCQQHNEYPPTFGAGTKLELKR

Legend:
[1] = molecular target: TRBV9+TRAV38 antigen; test: BLI (OctetRed 96), antigen on AR2G sensors, antibody 126-2 nM, 1:1 model; run 3
[2] = molecular target: TRBV9+TRAV26 antigen; test: as above
[3] = molecular target: TRBV9+TRAV38 antigen; test: BLI (OctetRed 96), antigen on AR2G sensors, antibody 126-2 nM, 1:1 model; run 1
[4] = molecular target: TRBV9+TRAV26 antigen; test: as above
[5] = molecular target: TRBV9+TRAV38 antigen; test: BLI (OctetRed 96), antigen on AR2G sensors, antibody 126-2 nM, 1:1 model; run 2
[6] = molecular target: TRBV9+TRAV26 antigen; test: as above
[7] = molecular target: human T cell receptor with a beta-chain of the TRBV9 family, on T lymphocytes of the mononuclear fraction of human blood (human); test: flow cytometry, FITC-labelled antibody on human blood mononuclear cells, 5 and 0.5 ng/µl
Sequence of human T cell receptor with a beta-chain of the TRBV9 family, on T lymphocytes of the mononuclear fraction of human blood (human) (A0A0B4J1U6 22-114): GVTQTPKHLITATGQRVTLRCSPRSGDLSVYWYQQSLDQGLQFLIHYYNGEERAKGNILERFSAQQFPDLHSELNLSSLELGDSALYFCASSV

Binder	Kd [1] [nM]	koff [1] [s⁻¹]	kon [1] [M⁻¹ s⁻¹]	Kd [2] [nM]	koff [2] [s⁻¹]	kon [2] [M⁻¹ s⁻¹]	Kd [3] [nM]	koff [3] [s⁻¹]	kon [3] [M⁻¹ s⁻¹]	Kd [4] [nM]	koff [4] [s⁻¹]	kon [4] [M⁻¹ s⁻¹]	Kd [5] [nM]	koff [5] [s⁻¹]	kon [5] [M⁻¹ s⁻¹]	Kd [6] [nM]	koff [6] [s⁻¹]	kon [6] [M⁻¹ s⁻¹]	staining, share of the CD3-positive fraction [7] [%]
B1	0.529	0.000196	371000	0.204	0.000114	559000	0.414	0.000183	441000	0.22	0.000113	515000	0.365	0.000205	562000	0.278	0.000183	658000	–
B2	–	–	–	–	–	–	< 0.001	< 1e-07	713000	< 0.001	< 1e-07	865000	< 0.001	< 1e-07	476000	< 0.001	< 1e-07	579000	–
B3	–	–	–	–	–	–	0.311	9.61e-05	309000	0.319	9.16e-05	287000	0.4	9.16e-05	229000	0.582	9.8e-05	168000	–
B4	–	–	–	–	–	–	< 0.001	< 1e-07	397000	0.0135	6.02e-06	447000	< 0.001	< 1e-07	289000	< 0.001	< 1e-07	381000	2.9
